Experimental data taken from patent US20210017279A1 (NANJING LEGEND BIOTECH, published 2021).
Where “and” joins values, the source holds several entries; their conditions need not be identical. Equal entries are not always repeated.

T1: human LAG-3 expressed on CHO-K1 cells (human, UniProt P18627 29-525)
T1 construct: also called CHO-huLAG-3 cells; LAG-3 expressed on CHO cells
T1 sequence: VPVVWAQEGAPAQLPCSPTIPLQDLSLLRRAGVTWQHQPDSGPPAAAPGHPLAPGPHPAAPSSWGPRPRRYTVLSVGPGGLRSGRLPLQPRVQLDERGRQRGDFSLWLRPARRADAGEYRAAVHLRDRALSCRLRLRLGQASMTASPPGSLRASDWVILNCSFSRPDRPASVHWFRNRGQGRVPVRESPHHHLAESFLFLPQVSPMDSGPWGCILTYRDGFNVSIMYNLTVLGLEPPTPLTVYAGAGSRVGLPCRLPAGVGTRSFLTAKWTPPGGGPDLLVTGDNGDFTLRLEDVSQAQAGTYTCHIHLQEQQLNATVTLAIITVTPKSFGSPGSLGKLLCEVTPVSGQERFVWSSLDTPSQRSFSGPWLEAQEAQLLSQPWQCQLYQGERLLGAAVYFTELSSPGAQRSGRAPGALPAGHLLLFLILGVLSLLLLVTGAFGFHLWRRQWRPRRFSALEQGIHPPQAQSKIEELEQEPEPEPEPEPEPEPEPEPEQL

T2: Human LAG-3-His (human, UniProt P18627 29-450)
T2 construct: Bought recombinant protein; also called Human LAG-3 protein (Acrobiosystem, 772-6BGF2-D5); not shown: His tag
T2 sequence: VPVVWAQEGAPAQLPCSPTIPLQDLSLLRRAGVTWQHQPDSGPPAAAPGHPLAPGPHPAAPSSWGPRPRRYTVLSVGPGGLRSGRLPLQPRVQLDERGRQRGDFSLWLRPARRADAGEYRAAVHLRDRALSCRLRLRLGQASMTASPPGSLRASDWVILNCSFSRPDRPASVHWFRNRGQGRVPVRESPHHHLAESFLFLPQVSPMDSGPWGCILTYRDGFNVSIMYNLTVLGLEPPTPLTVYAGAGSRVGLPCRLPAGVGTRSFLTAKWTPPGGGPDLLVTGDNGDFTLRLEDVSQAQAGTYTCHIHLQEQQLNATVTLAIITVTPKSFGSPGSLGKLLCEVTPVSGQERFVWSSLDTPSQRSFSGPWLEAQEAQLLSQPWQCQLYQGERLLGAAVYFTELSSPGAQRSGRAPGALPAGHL

T3: LAG-3-Fc (human, UniProt P18627 29-450, biotinylated (in the blocking assays))
T3 construct: Recombinant LAG-3-Fc (Acrobiosystems / R&D Systems); also called biotinylated LAG-3-Fc protein; not shown: Fc part
T3 sequence: T2 sequence

B1: PD1-BM-min (antibody, human IgG4 S228P, kappa, V domains shown)
VH: EVQLVESGGGLVQPGGSLRLSCAASGFVFSRYDMAWVRQAPGKGLEWVSFISGGGSNTYYPDTVKGRFTISRDNSKNTLYLQMNSLRAEDTAVYYCISPYYYAMEYWGQGTTVTVSS
VL: DIQMTQSPSSVSASVGDRVTITCKASQDVDTAVAWYQQKPGKAPKLLIYWASTRHTGVPSRFSGSGSGTDFTLTISSLQPEDFATYYCQQYSTFPWTFGGGTKVEIKR
notes: Full-length anti-PD-1 antibody, parental element of the BLP constructs; also called PD-BM-min; anti-PD-1 full-length antibody
B2: BLP-15 (bispecific antibody, human IgG4 S228P, kappa)
heavy: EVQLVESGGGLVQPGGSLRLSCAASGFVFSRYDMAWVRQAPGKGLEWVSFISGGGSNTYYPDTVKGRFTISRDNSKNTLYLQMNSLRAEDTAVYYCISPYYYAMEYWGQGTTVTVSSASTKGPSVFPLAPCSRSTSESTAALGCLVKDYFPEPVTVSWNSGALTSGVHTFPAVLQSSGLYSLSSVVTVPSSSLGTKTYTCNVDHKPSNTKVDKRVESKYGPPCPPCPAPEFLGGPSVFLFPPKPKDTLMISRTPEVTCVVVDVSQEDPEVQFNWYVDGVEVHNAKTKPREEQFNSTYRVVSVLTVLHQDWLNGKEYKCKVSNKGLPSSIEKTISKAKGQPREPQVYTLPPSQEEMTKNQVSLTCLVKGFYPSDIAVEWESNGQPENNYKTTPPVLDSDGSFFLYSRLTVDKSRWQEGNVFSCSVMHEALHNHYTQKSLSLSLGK
light: EVQLVESGGGLVQPGGSLRLSCAASGYTVSSYCMGWFRQAPGKGREGVSAIDSDGSVSYADSVKGRFTISKDNSKNTLYLQMNSLRAEDTAVYFCAADLCWVDQDQGEYNTWGQGTLVTVSSEPKSSDKTHTSPPSPDIQMTQSPSSVSASVGDRVTITCKASQDVDTAVAWYQQKPGKAPKLLIYWASTRHTGVPSRFSGSGSGTDFTLTISSLQPEDFATYYCQQYSTFPWTFGGGTKVEIKRTVAAPSVFIFPPSDEQLKSGTASVVCLLNNFYPREAKVQWKVDNALQSGNSQESVTEQDSKDSTYSLSSTLTLSKADYEKHKVYACEVTHQGLSSPVTKSFNRGEC
notes: also called PD-1 x LAG-3 BABP
B3: BLP-38 (bispecific antibody, human IgG4 S228P, kappa)
heavy: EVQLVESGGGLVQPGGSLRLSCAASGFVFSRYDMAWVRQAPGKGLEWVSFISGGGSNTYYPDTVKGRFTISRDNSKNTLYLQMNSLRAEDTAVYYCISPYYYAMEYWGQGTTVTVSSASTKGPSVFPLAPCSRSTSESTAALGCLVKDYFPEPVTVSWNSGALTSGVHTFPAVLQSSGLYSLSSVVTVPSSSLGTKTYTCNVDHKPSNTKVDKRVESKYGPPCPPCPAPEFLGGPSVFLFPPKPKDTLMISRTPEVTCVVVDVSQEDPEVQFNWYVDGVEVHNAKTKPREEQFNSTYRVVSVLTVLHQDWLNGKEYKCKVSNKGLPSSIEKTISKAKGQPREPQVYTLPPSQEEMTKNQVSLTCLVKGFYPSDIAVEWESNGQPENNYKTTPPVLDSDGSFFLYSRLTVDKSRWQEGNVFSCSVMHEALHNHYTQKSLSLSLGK
light: EPKSSDKTHTSPPSPEVQLVESGGGLVQPGGSLRLSCAASGYTVSSYCMGWFRQAPGKGREGVSAIDSDGSVSYADSVKGRFTISKDNSKNTLYLQMNSLRAEDTAVYFCAADLCWVDQDQGEYNTWGQGTLVTVSSDIQMTQSPSSVSASVGDRVTITCKASQDVDTAVAWYQQKPGKAPKLLIYWASTRHTGVPSRFSGSGSGTDFTLTISSLQPEDFATYYCQQYSTFPWTFGGGTKVEIKRTVAAPSVFIFPPSDEQLKSGTASVVCLLNNFYPREAKVQWKVDNALQSGNSQESVTEQDSKDSTYSLSSTLTLSKADYEKHKVYACEVTHQGLSSPVTKSFNRGEC
notes: also called PD-1 x LAG-3 BABP
B4: BLP-19 (bispecific antibody, human IgG4 S228P, kappa)
heavy: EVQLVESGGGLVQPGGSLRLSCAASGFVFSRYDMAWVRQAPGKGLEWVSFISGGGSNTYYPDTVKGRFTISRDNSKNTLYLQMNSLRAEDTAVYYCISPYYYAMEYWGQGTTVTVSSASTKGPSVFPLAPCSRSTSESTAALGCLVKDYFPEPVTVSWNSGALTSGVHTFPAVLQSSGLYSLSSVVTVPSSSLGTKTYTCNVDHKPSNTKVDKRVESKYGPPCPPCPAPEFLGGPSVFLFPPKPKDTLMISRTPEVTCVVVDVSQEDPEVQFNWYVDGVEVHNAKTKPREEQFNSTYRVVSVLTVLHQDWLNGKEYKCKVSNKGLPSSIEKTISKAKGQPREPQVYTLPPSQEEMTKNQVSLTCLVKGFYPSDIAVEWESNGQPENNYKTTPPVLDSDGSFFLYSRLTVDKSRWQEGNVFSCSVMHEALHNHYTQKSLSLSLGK
light: EVQLVESGGGLVQPGGSLRLSCAASGYTYGGYCMGWFRQAPGKGLEGVSTINSDGSTNYADSVKGRFTISRDNSKNTLYLQMNSLRAEDTAVYYCAVDLAPCWVAGPIEAADFGYWGQGTLVTVSSEPKSSDKTHTSPPSPDIQMTQSPSSVSASVGDRVTITCKASQDVDTAVAWYQQKPGKAPKLLIYWASTRHTGVPSRFSGSGSGTDFTLTISSLQPEDFATYYCQQYSTFPWTFGGGTKVEIKRTVAAPSVFIFPPSDEQLKSGTASVVCLLNNFYPREAKVQWKVDNALQSGNSQESVTEQDSKDSTYSLSSTLTLSKADYEKHKVYACEVTHQGLSSPVTKSFNRGEC
notes: also called PD-1 x LAG-3 BABP
B5: BLP-34 (bispecific antibody, human IgG4 S228P, kappa)
heavy: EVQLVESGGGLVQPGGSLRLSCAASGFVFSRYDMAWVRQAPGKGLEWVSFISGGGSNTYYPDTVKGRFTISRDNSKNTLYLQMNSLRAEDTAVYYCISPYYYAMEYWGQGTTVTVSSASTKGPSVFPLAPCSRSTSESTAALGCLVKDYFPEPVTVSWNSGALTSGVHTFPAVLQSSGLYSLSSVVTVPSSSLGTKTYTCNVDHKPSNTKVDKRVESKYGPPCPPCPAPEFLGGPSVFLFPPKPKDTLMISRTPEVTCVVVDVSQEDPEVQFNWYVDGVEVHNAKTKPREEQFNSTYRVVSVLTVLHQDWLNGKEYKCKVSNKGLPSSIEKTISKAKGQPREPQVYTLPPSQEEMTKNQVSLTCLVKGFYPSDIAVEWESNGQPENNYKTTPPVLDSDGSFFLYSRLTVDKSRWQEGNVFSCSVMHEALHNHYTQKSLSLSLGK
light: EPKSSDKTHTSPPSPEVQLVESGGGLVQPGGSLRLSCAASGYIISSYCMGWFRQAPGKGLEGVAAIDSDGGTSYADSVKGRFTISKDNSKNTLYLQMNSLRAEDTAMYYCAADFCWVDEDRHLYEYNSWGQGTLVTVSSDIQMTQSPSSVSASVGDRVTITCKASQDVDTAVAWYQQKPGKAPKLLIYWASTRHTGVPSRFSGSGSGTDFTLTISSLQPEDFATYYCQQYSTFPWTFGGGTKVEIKRTVAAPSVFIFPPSDEQLKSGTASVVCLLNNFYPREAKVQWKVDNALQSGNSQESVTEQDSKDSTYSLSSTLTLSKADYEKHKVYACEVTHQGLSSPVTKSFNRGEC
notes: also called PD-1 x LAG-3 BABP
B6: BMS-986016 (antibody, human IgG4 S228P, kappa, V domains shown)
VH: QVQLQQWGAGLLKPSETLSLTCAVYGGSFSDYYWNWIRQPPGKGLEWIGEINHRGSTNSNPSLKSRVTLSLDTSKNQFSLKLRSVTAADTAVYYCAFGYSDYEYNWFDPWGQGTLVTVSS
VL: EIVLTQSPATLSLSPGERATLSCRASQSISSYLAWYQQKPGQAPRLLIYDASNRATGIPARFSGSGSGTDFTLTISSLEPEDFAVYYCQQRSNWPLTFGQGTNLEIKR
notes: also called benchmark antibody; positive control anti-LAG-3 monoclonal antibody (Bristol-Myers Squibb)
B7: BLP-2 (bispecific antibody, human IgG4 S228P, kappa)
heavy: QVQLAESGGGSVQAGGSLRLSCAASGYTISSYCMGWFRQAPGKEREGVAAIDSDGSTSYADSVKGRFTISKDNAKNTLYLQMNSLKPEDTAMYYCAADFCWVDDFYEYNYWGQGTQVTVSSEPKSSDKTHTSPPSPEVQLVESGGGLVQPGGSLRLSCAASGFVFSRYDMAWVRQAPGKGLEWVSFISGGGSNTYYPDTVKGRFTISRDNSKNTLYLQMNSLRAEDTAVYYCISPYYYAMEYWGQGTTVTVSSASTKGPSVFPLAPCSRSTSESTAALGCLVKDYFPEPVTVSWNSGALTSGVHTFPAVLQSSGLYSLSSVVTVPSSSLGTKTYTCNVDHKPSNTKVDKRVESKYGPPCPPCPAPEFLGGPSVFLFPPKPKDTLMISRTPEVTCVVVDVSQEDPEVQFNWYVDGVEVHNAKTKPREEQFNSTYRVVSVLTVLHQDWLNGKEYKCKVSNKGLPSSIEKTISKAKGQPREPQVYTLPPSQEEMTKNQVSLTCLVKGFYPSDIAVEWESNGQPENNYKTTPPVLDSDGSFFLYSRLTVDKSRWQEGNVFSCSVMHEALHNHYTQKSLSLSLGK
light: DIQMTQSPSSVSASVGDRVTITCKASQDVDTAVAWYQQKPGKAPKLLIYWASTRHTGVPSRFSGSGSGTDFTLTISSLQPEDFATYYCQQYSTFPWTFGGGTKVEIKRTVAAPSVFIFPPSDEQLKSGTASVVCLLNNFYPREAKVQWKVDNALQSGNSQESVTEQDSKDSTYSLSSTLTLSKADYEKHKVYACEVTHQGLSSPVTKSFNRGEC
notes: also called PD-1 x LAG-3 proof-of-concept BABP
B8: BLP-4 (bispecific antibody, human IgG4 S228P, kappa)
heavy: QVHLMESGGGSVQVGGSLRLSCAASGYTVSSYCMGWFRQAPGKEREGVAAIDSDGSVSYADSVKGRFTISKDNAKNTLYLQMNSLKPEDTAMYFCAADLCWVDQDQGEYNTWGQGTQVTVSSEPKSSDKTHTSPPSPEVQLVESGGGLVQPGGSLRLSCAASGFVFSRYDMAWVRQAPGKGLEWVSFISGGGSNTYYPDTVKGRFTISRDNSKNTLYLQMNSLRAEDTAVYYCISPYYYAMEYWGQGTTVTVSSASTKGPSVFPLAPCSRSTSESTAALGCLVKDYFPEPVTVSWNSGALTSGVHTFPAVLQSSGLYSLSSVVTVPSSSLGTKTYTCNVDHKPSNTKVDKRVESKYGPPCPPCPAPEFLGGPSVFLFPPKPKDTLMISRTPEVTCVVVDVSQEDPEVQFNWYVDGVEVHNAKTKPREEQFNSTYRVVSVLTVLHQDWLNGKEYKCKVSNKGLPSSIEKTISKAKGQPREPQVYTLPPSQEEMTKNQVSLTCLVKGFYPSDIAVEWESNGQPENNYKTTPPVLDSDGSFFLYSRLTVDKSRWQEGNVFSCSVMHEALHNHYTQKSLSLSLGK
light: B7 light
notes: as for B7
B9: BLP-3 (bispecific antibody, human IgG4 S228P, kappa)
heavy: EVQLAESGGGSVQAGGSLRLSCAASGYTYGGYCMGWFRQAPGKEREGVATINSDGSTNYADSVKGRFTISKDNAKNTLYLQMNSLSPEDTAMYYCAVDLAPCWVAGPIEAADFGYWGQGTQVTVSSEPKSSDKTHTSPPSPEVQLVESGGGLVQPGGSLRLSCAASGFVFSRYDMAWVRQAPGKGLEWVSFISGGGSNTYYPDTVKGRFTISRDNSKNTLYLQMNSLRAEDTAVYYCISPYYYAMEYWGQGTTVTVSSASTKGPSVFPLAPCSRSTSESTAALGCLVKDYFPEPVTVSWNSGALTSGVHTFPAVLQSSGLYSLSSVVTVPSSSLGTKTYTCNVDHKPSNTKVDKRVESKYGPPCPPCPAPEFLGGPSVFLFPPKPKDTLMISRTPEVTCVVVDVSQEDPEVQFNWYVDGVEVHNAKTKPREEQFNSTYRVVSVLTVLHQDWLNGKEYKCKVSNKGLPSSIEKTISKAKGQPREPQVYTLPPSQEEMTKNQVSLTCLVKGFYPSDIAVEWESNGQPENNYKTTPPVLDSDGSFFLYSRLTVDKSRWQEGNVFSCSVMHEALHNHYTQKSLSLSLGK
light: B7 light
notes: as for B7
B10: Pembrolizumab (antibody, human IgG4 S228P, kappa, V domains shown)
VH: QVQLVQSGVEVKKPGASVKVSCKASGYTFTNYYMYWVRQAPGQGLEWMGGINPSNGGTNFNEKFKNRVTLTTDSSTTTAYMELKSLQFDDTAVYYCARRDYRFDMGFDYWGQGTTVTVSS
VL: EIVLTQSPATLSLSPGERATLSCRASKGVSTSGYSYLHWYQQKPGQAPRLLIYLASYLESGVPARFSGSGSGTDFTLTISSLEPEDFAVYYCQHSRDLPLTFGGGTKVEIKR

Each binder was assayed against T4, PD-1 expressed on CHO cells (UniProt Q15116 25-288, limits assumed) (assay: flow cytometry on CHO cells expressing PD-1; Experiment 2).
T4 construct: whole, on cells; also called CHO-PD-1 cells
T4 sequence (Q15116 25-288 limits assumed): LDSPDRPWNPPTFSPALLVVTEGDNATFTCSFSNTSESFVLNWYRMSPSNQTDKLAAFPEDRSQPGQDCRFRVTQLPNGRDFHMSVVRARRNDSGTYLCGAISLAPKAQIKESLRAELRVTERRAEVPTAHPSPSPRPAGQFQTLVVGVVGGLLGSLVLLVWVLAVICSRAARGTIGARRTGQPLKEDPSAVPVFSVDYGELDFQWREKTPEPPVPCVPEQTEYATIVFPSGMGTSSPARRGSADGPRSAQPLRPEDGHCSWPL

| EC50 | Binder |
| --- | --- |
| 6.27 nM | B1 |
| 13.7 nM | B2 |
| 8.51 nM | B3 |
| 14.6 nM | B4 |
| 12.5 nM | B5 |

What follows are binders tested against LAG-3 on Thaw-and-Use LAG-3 Effector cells (assay: cell-based or functional assay).

| LAG-3 blockade reporter assay EC50 | LAG-3 blockade reporter assay Signal span (% activation) | Binder |
| --- | --- | --- |
| 3.82 nM | 76.8 % activation | B6 |

The binders below were run against T1, human LAG-3 expressed on CHO-K1 cells (assay: flow cytometry on CHO cells expressing LAG-3; Experiment 2).
Experimental: (§1) To determine cell binding EC₅₀, CHO-K1 cells expressing human or cynomolgus LAG-3 were harvested and incubated with anti-LAG-3 sdAb-Fc fusion proteins at gradient concentrations, followed by fluorophore-labeled secondary antibodies against human Fc. […] The samples were then analyzed with flow cytometry. The binding and blocking curves were shown in FIG. 4 and FIG. 5, respectively.

| EC50 | Binder |
| --- | --- |
| 13.5 nM | B4 |
| 3.12 nM | B5 |

Each binder was assayed against T4, PD-1 expressed on CHO cells (assay: flow cytometry competition; blocks PD-L1 binding to CHO-PD-1 cells; Experiment 1).

| EC50 | Binder |
| --- | --- |
| 1.72 nM | B1 |
| 3.2 nM | B7 |
| 2.58 nM | B8 |
| 4.38 nM | B9 |

What follows are binders tested against T2, Human LAG-3-His (assay: SPR (Biacore T200), as in Example 3; Experiment 2).

| Kd | Binder |
| --- | --- |
| 1.4 nM | B4 |
| 3.7 nM | B5 |

Each binder was assayed against T5, Human PD-1 (human, UniProt Q15116 25-167, limits assumed) (assay: SPR (Biacore T200), as in Example 3; Experiment 2).
T5 sequence (Q15116 25-167 limits assumed): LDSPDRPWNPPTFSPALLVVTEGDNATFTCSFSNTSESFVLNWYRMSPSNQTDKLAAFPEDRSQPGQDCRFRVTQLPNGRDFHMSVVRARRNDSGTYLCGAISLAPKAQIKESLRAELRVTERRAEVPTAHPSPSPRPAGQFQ

| Kd | Binder |
| --- | --- |
| 2.3 nM | B1 |
| 4.4 nM | B2 |
| 2.5 nM | B3 |
| 4 nM | B4 |
| 3.1 nM | B5 |

These binders were tested against T6, Cynomolgus LAG-3-Fc (cynomolgus) (assay: SPR (Biacore T200); cynomolgus LAG-3 immobilized, antibody injected).
T6 construct: Bought recombinant protein; also called cynomolgus LAG-3 protein (Acrobiosystem, 2187-71HF1-DZ)
Source text: BIACORE™ T200 instrument was utilized to determine affinity constant (KD) of each anti-LAG-3 antibody (sdAb-Fc fusion protein or mAb format) by SPR. Briefly, for measuring the affinity against human LAG-3, anti-LAG-3 antibody was immobilized on the sensor chip through capture antibody (Jackson ImmunoResearch Cat.No.115-005-071) at an appropriate density. […] The data of dissociation rate constant (koff) and association rate constant (k₀n) were obtained using BIACORE™ T200 evaluation software and the affinity constant (KD) were calculated from the ratio of koff to kₒₙ.

| Kd | Binder |
| --- | --- |
| 1000 nM | B6 |

Each binder was assayed against T6, Cynomolgus LAG-3-Fc (assay: SPR (Biacore T200); antibody captured on chip, LAG-3 injected).
Experimental: BIACORE™ T200 instrument was utilized to determine the affinity constant (KD) of each anti-LAG-3 antibody (sdAb-Fc fusion protein or mAb format) by SPR. Briefly, anti-LAG-3 antibody was immobilized on the sensor chip through capture antibody (Jackson ImmunoResearch Cat. No.115-005-071) at an appropriate density. […] The data of dissociation rate constant (koff) and association rate constant (kₘ) were obtained using BIACORE™ T200 evaluation software and the affinity constant (KD) were calculated from the ratio of koff to kₘ.

| Kd | Binder |
| --- | --- |
| 1.7 nM | B6 |

The binders below were run against T5, Human PD-1 (assay: SPR (Biacore T200), as in Example 3; Experiment 1).

| Kd | Binder |
| --- | --- |
| 1.4 nM | B1 |
| 4.4 nM | B7 |
| 4.5 nM | B8 |
| 2 nM | B9 |

These binders were tested against T4, PD-1 expressed on CHO cells (assay: flow cytometry on CHO cells expressing PD-1; Experiment 1).

| EC50 | Binder |
| --- | --- |
| 2.44 nM | B1 |
| 4.29 nM | B7 |
| 3.51 nM | B8 |
| 4.64 nM | B9 |

These binders were tested against PD-1 in the PD-1 cell based reporter assay (assay: cell-based or functional assay).

| PD-1 cell based reporter assay EC50 | Binder |
| --- | --- |
| 1.15 nM | B10 |
| 1.34 nM and 1.21 nM | B1 |
| 3.32 nM | B2 |
| 1.25 nM | B3 |
| 3.65 nM | B4 |
| 5.14 nM | B7 |
| 5.94 nM | B8 |
| 5.92 nM | B9 |
| 2.77 nM | B5 |

Biological target: LAG-3 on Thaw-and-Use LAG-3 Effector cells
Test: cell-based or functional assay
Remark: another data set of the same source

| LAG-3 blockade reporter assay EC50 | Binder |
| --- | --- |
| 3.29 nM and 3.82 nM | B6 |
| 5.12 nM | B2 |
| 3.83 nM | B3 |
| 1.57 nM | B4 |
| 2.04 nM | B7 |
| 1.85 nM | B8 |
| 1.45 nM | B9 |
| 15.8 nM | B5 |

What follows are binders tested against T4, PD-1 expressed on CHO cells (assay: flow cytometry competition; blocks PD-L1 binding to CHO-PD-1 cells; Experiment 2).

| EC50 | Binder |
| --- | --- |
| 9.56 nM | B1 |
| 18.5 nM | B2 |
| 12.4 nM | B3 |
| 21 nM | B4 |
| 13.8 nM | B5 |

Each binder was assayed against T3, LAG-3-Fc (assay: flow cytometry competition; blocks LAG-3-Fc binding to MHC II on A375 cells; Experiment 2).

| EC50 | Binder |
| --- | --- |
| 44.6 nM | B4 |
| 37.1 nM | B5 |

Each binder was assayed against T7, cynomolgus LAG-3 expressed on CHO-K1 cells (cynomolgus) (assay: flow cytometry on CHO-K1 cells expressing cynomolgus LAG-3).
T7 construct: whole, on cells
Experimental: as §1

| EC50 | Binder |
| --- | --- |
| 17.6 nM | B6 |
